Our source for the binding result and Kd values is publication PMC5632138 (Journal of molecular biology, 2017).

What all share (assay): BLI
(In BLI a coated tip is dipped into the sample, and binding shifts an interference pattern.)

The target of assay [1] is T1, Full-length ETV4 Thr363Ala (UniProt P43268 1-484, Thr363Ala).
T1 sequence (looked up): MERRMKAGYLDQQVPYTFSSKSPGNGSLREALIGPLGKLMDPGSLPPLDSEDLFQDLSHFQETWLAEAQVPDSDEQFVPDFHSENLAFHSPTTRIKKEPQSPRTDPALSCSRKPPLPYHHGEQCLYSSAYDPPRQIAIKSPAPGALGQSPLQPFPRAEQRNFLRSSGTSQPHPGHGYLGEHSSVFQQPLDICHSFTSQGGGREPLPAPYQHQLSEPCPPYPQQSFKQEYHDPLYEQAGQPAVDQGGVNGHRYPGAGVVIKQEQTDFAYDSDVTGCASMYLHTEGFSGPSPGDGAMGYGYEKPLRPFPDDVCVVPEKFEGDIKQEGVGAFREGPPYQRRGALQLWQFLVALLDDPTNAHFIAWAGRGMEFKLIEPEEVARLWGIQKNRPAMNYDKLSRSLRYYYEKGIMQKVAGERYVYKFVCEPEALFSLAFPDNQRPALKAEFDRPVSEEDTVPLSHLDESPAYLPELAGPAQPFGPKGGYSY

Assay [2] deals with T2, Full-length ETV4 Lys370Ala (UniProt P43268 1-484, Lys370Ala).
T2 sequence (looked up): T1 sequence (looked up) with A363T, K370A

Assay [3] addresses T3, Full-length ETV4 (ETV4^1–484) (UniProt P43268 1-484).
T3 sequence (looked up): T1 sequence (looked up) with A363T

The target of a further assay is Full-length FOS (UniProt P01100 1-380).
A further assay deals with JUN/FOS heterodimers (UniProt P05412 1-331; P01100 1-380).

Where a chain is given by its changes, count along the chain named.

Full-length FOS, sequence (P01100 whole entry): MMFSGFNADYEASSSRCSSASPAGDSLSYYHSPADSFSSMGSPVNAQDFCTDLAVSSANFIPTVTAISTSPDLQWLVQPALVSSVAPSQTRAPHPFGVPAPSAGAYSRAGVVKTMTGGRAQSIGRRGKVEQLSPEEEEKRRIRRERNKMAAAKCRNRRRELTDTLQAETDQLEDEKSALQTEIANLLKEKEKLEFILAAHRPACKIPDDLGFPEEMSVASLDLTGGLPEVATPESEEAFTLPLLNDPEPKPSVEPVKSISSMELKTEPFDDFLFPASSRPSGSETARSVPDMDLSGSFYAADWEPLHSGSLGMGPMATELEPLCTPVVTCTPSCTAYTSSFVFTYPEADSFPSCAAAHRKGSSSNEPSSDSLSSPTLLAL
JUN/FOS heterodimers, sequence (P05412 whole entry, chain 1 of 2): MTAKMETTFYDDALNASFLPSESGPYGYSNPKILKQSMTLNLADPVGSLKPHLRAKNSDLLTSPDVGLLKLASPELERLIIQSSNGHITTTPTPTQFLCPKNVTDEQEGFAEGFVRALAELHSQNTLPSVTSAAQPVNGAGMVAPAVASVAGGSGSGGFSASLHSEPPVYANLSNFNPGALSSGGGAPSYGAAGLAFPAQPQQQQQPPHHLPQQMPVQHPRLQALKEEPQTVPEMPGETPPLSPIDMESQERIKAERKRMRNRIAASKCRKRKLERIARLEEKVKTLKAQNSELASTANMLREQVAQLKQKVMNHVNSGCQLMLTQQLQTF
JUN/FOS heterodimers, sequence (P01100 whole entry, chain 2 of 2): as the sequence (P01100 whole entry) above

B1: MED25 ACID (residues 391–553), biotinylated ligand for biolayer interferometry (domain or fragment, human, UniProt Q71SY5 391-553, looked up)
chain: GQQSVSNKLLAWSGVLEWQEKPKPASVDANTKLTRSLPCQVYVNHGENLKTEQWPQKLIMQLIPQQLLTTLGPLFRNSRMVQFHFTNKDLESLKGLYRIMGNGFAGCVHFPHTAPCEVRVLMLLYSSKKKIFMGLIPYDQSGFVNGIRQVITNHKQVQQQKLE
modifications: biotin (biotinylated; D-biotin added at the induction point)
Consider B1, for which the binding result in assay [1] and in assay [2] was “binds” throughout. The values for the Kd (in assay [3]; with Full-length FOS; with JUN/FOS heterodimers) were 5 nM, 9 nM and 5 nM, respectively.

Broadly, the Kd is a measure of binding affinity in units of concentration. Low values mean a tighter complex, high ones a looser complex.
